Data as given in US20240279345A1, “ALPHA 5 BETA 1 INTEGRIN BINDING AGENTS AND USES THEREOF” (PASITHEA THERAPEUTICS CORP., priority 2021, published 2024).

B1: A2-7A05: anti-α5β1 antibody, VH SEQ ID NO:77, VL SEQ ID NO:78; tested as mouse hybridoma antibody and as human IgG4 chimera (antibody, V domains shown)
VH: QVQLQQPGAELVKPGASVKLSCKASGYTFTIYWINWVKQRPGQGLEWIGKIYPGSISTDYNEKFKSKATLTVDTSSSTAYMQLSSLTSDDSAVYYCAITGTGGLAYWGQGTLVTVSA
VL: ENVLTQSPAIMSASLGEKVTMTCRASSSVNYMYWYQQKSDASPKLWIYFTSSLAPGVPGRFSGSGSGNSYSLTISTMEGEDAATYYCQQFTTSPFTFGSGTKLEIK
modifications: A2-7A05 VH Sequence; A2-7A05 VL Sequence
notes: tested as mouse hybridoma antibody and as human IgG4 chimera
B2: A-15B08: anti-α5β1 antibody, VH SEQ ID NO:25, VL SEQ ID NO:26; tested as mouse hybridoma antibody and as human IgG4 chimera (antibody, V domains shown)
VH: QVQLKESGPGLVAPSQSLSITCTISGFSLTSYGVHWVRQPPGKGLEWLVVIWSDGSTTYNSTLKSRLSISKDNSKSQVFFKMNSLQTDDTAMYYCARHYDYDGDWFAYWGQGTLVTVSA
VL: QIVLTQSPAIMSASLGERVTMTCTASSRVSSNSLHWYQQKPGSSPKLWIYSTSNLASGVPARFSGSGSGTSYSLTISSMEAEDAATYYCHQYLRSPPTFGGGTKLEIK
modifications: A-15B08 VH Sequence; A-15B08 VL Sequence
notes: as for B1

Tests used:
[1] = target: T1, binding of α5β1 integrin to fibronectin (FN) (Homo sapiens, UniProt P05556+P08648); test: Quantitative FN inhibition (FN-blocking) assay in ELISA format; type: biochemical; settings: by ELISA
T1 construct: purchased Acro Biosystems IT1-H52W5
T1 sequence (P08648 42-894 limits assumed): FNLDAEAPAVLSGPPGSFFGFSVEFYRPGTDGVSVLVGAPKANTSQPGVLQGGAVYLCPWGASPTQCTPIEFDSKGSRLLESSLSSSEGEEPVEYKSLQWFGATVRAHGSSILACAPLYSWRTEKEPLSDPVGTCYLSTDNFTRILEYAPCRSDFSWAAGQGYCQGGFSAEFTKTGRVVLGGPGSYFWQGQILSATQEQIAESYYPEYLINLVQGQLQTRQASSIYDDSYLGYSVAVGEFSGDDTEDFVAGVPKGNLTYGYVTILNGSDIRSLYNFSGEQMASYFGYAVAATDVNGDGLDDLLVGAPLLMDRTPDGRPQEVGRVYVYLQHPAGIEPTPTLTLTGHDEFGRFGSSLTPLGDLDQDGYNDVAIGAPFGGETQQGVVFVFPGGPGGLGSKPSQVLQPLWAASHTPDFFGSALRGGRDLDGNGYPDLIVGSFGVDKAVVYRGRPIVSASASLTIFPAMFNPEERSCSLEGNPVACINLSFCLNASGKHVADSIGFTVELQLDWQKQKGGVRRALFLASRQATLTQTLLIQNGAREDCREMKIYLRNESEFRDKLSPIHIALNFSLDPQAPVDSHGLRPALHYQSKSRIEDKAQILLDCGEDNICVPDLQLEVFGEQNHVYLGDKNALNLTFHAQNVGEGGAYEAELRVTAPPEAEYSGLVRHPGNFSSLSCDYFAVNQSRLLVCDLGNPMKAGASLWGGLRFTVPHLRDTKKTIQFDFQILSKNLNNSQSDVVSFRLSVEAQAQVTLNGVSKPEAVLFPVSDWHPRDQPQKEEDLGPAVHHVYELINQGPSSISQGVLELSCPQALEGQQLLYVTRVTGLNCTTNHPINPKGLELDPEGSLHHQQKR
T1 sequence (P08648 895-995 limits assumed): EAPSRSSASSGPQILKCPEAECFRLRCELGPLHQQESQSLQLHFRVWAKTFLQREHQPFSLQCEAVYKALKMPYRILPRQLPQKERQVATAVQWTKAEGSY
T1 sequence (P05556 21-728 limits assumed): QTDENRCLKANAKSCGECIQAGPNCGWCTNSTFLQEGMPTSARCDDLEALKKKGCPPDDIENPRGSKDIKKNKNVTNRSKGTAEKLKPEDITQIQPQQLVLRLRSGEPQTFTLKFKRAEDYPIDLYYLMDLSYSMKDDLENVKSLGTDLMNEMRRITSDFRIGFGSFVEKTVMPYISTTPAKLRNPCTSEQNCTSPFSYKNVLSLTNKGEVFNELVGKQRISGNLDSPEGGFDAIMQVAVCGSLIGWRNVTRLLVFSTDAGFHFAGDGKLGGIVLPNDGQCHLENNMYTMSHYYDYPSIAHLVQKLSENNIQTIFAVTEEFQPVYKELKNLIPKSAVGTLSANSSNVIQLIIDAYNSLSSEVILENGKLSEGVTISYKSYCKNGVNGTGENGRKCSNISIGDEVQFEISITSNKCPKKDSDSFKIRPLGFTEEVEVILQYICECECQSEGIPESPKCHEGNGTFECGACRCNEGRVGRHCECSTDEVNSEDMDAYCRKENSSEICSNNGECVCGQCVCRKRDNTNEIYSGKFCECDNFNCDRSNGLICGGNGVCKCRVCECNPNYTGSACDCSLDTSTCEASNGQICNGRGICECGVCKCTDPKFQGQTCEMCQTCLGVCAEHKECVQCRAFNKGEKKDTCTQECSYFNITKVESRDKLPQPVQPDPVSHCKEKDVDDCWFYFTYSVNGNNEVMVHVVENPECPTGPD
Text: To determine whether the 9 unique hybridoma clones selected as described in Example 4 were able to inhibit the binding of α5β1 integrin to fibronectin (FN), the antibodies were first purified from hybridoma supernatants by Protein A chromatography, protein concentrations measured by BCA assay (Pierce™ BCA Protein Assay Kit; Thermo Fisher Scientific, Waltham, MA, cat. no. 23225) and then tested in a quantitative FN inhibition assay in an ELISA format.
Immulon4 HBX ELISA 96-well plates were coated with FN by incubation overnight at 4° C. with 2.5 μg/mL human FN (R&D Systems, Minneapolis, MN 55413, cat. no. 1918-FN) in 1×PBS (0.01M phosphate buffer and 0.154M NaCl, pH 7.4). Plates were then washed 3 times with Wash Buffer (1× Tris Buffered Saline containing 0.05% Tween20), blocked with 2% BSA in 1×TBS for 2 hours at room temperature (RT). Antibodies were diluted in Standard Diluent (2% BSA, 1×TBS, 0.05% Tween20) containing 0.1 μg/mL rh-α5β1-6×His tagged protein (Acro Biosystems, Newark, DE, cat. no. IT1-H52W5), to generate an 11 point 1:3 antibody dilution series ranging from 10,000 ng/mL to 0.17 ng/mL. Isotype control antibody (Control Ab; Ms IgG2a EMD Millipore Corp, Billerica, MA, cat. no. PP102) was used to normalize data across different assay runs. For the assays, 100 uL of the antibody dilution series/His-tagged-α5β1 mixture was added to the wells after the blocking solution was removed and wells were washed 3 times. Following 1 hour at RT, the wells were washed 3 times, incubated with biotinylated Anti-6×His-Tag Ab (Invitrogen, Carlsbad, CA, cat. no. MAI-21315-BTIN) at 1:1000 in Standard Diluent for 1 hour, washed 3 times, incubated for 30 minutes with poly-HRP Streptavidin (Thermo Fisher Scientific, Waltham, MA, cat. no. N200), washed 4 times, incubated with TMB substrate (Thermo Fisher Scientific, Waltham, MA, cat. no. N301) for 2-5 minutes, followed by addition of ELISA Stop Solution (Invitrogen, Carlsbad, CA, cat. no. SS04). Absorbance 450 nm was measured. Data points were normalized to the isotype Control Ab values at each concentration and reported as % Absorbance 450 nm normalized to Control Ab. Non-linear regression analysis was used to fit curves (4-parameter) to the data using GraphPad Prism version 9.0.2 (GraphPad Software, LLC, San Diego, CA).
Freeze-thaw stability was tested on a small aliquot of each chimera antibody by overnight storage at −80° C. followed by thaw on ice, repeated three times. […] IC50s were calculated by non-linear regression analysis curve-fitting (4-parameter) of the ELISA data (FIG. 5) using GraphPad Prism version 9.0.2 (GraphPad Software, LLC, San Diego, CA). […]

[2] = target: rh-α5β1 protein bound to human FN protein (Homo sapiens, UniProt P05556+P08648); test: SPR dissociation of rh-α5β1 bound to FN; type: biochemical; settings: 1 μM antibody injected for 250s after 400 nM rh-α5β1; 25° C.
rh-α5β1 protein bound to human FN protein, sequence (P08648 42-894 limits assumed): as the sequence (P08648 42-894 limits assumed) above
rh-α5β1 protein bound to human FN protein, sequence (P08648 895-995 limits assumed): as the sequence (P08648 895-995 limits assumed) above
rh-α5β1 protein bound to human FN protein, sequence (P05556 21-728 limits assumed): as the sequence (P05556 21-728 limits assumed) above
Method: Surface Plasmon Resonance (SPR) and a cell-based assay were used to test the effect of the antibodies on the dissociation of rh-α5β1 protein bound to human FN protein. The antibodies tested are representatives of the two groups of antibodies identified in Example 6 that define two different epitope binding groups and have distinct ligand blocking properties. […] In addition, the small molecule antagonist cyclic RGD (cRGD; Creative-Peptides, Shirley, New York, 11967, cat. no. CP22175) was tested as a comparator that inhibits α5β1 integrin binding to FN by competing at the ligand binding pocket.
Description of the SPR method used: FN protein dissolved in water was manually printed onto the bare gold-coated (thickness 47 nm) PlexArray Nanocapture Sensor Chip (Plexera Bioscience, Seattle, WA) at 40% humidity. The chip was incubated in 80% humidity at 4° C. for overnight and rinsed with 10×PBST (0.1M phosphate buffer, 1.54M NaCl, pH7.4, 0.5% Tween20) for 10 minutes (min), 1×PBST (0.01M phosphate buffer pH7.4, 0.154M NaCl, 0.05% Tween20) for 10 min, and deionized water twice for 10 min. The chip was then blocked with 5% (w/v) non-fat milk in water overnight, and washed with 10×PBST for 10 min, 1×PBST for 10 min, and deionized water twice for 10 min before being dried under a stream of nitrogen prior to use. SPR measurements were performed using PlexArray HT (Plexera Bioscience, Seattle, WA), a high-throughput surface plasmon resonance imaging (SPRi) platform. Collimated light (660 nm) passes through the coupling prism, reflects off the SPR-active gold surface, and is received by the CCD camera. Buffers and samples were injected by a non-pulsatile piston pump into the 30 μL flow cell that was mounted on the coupling prim. […] SPR binding responses (a.u.) were recorded and plotted over time.

Row | Molecule | class of FN binding blocker [1] | effect on dissociation of rh-α5β1 protein bound to FN (SPR response) [2]
1 | B1 | partial blocker of FN binding | partial dissociation at a slower rate
2 | B2 | strong blockers of FN binding | rapid dissociation of the FN-α5β1 complex
